For orientation: Kd means the constant that tells how readily two partners part at equilibrium. A low value points to a tighter complex.

Experiment in all cases: MST
For test [1], the target named is T2 gp006^I20A-6×His (phage T2).
Test [2] has as its target T2 gp057-6×His (phage T2).
In test [3] the target is T2 gp006-6×His (phage T2).
Test [4] deals with T2 gp009-6×His (phage T2).

As to bNACHT11 (natural protein), the Kd in test [1] came out at 351 nM; in test [2], 149 nM; in test [3], 80 nM; in test [4], 269 nM.

Source of the values: PMC11702601.
